Data taken from US10064926B2, “Peptides and combination of peptides for use in immunotherapy against hepatocellular carcinoma (HCC) and other cancers” (Immatics biotechnologies GmbH, priority 2014, dated 2018).

Each substance was assayed against HLA-A*02 (Homo sapiens, UniProt P04439, D140Y/D185E/D98H/E176V/E277Q/G131W/G231S/I119V/I121R/I166T/I218V/N151K/N90K/P208A/P217A/Q86G/Q94H/R138H/R169H) (assay: UV-ligand exchange / peptide binding to MHC class I (beta2m ELISA)). Conditions: Table 10B; peptide exchange yield; HLA-A*02 peptides.
How it was run: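 Peptide-MHC complexes generated by UV-mediated exchange of a photocleavable ligand for the test peptide. Exchange yield measured by streptavidin-capture ELISA detecting β2m of stabilized complexes (HRP anti-β2m, TMB, 450 nm). Samples diluted 100-fold, quantified against refolded HLA-A*0201 monomer standards (15-500 ng/ml).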
With “241 (FVLPLLGLHEA; listed as Homo sapiens) [compound 241]” the “Peptide exchange (MHC class I binding score)” value (“Peptide exchange” below) was ““++” (≥20% = ++)”.
“242 (GLFAPVHKV; listed as Homo sapiens) [compound 242]” was tested, and the “Peptide exchange” value was ““+++” (≥50 = +++)”.
For “243 (GLLDNPELRV; listed as Homo sapiens) [compound 243]”, the “Peptide exchange” value was ““+++” (≥50 = +++)”.
“244 (KIAELLENV; listed as Homo sapiens) [compound 244]” was tested, and the “Peptide exchange” value was ““++++” (≥75% = ++++)”.
For “245 (KLGAVFNQV; listed as Homo sapiens) [compound 245]”, the “Peptide exchange” value was ““++++” (≥75% = ++++)”.
“246 (KLISSYYNV; listed as Homo sapiens) [compound 246]” was tested, and the “Peptide exchange” value was ““+++” (≥50 = +++)”.
“247 (KLLDTMVDTFL; listed as Homo sapiens) [compound 247]” was tested, and the “Peptide exchange” value was ““++++” (≥75% = ++++)”.
In the case of “248 (KLNDLIQRL; listed as Homo sapiens) [compound 248]”, the “Peptide exchange” value is reported as ““+++” (≥50 = +++)”.
“249 (LLLGERVAL; listed as Homo sapiens) [compound 249]” was tested, and the “Peptide exchange” value was ““++++” (≥75% = ++++)”.
With “250 (NLAEVVERV; listed as Homo sapiens) [compound 250]” the “Peptide exchange” value was ““++++” (≥75% = ++++)”.
With “251 (RLFADILNDV; listed as Homo sapiens) [compound 251]” the “Peptide exchange” value was ““++++” (≥75% = ++++)”.
With “252 (RTIEYLEEV; listed as Homo sapiens) [compound 252]” the “Peptide exchange” value was ““+++” (≥50 = +++)”.
For “253 (RVPPPPQSV; listed as Homo sapiens) [compound 253]”, the “Peptide exchange” value was ““++” (≥20% = ++)”.
For “254 (RVQEAIAEV; listed as Homo sapiens) [compound 254]”, the “Peptide exchange” value was ““+++” (≥50 = +++)”.
For “255 (SLFGQDVKAV; listed as Homo sapiens) [compound 255]”, the “Peptide exchange” value was ““+++” (≥50 = +++)”.
For “256 (SLFQGVEFHYV; listed as Homo sapiens) [compound 256]”, the “Peptide exchange” value was ““+++” (≥50 = +++)”.
In the case of “257 (SLLEKAGPEL; listed as Homo sapiens) [compound 257]”, the “Peptide exchange” value is reported as ““+++” (≥50 = +++)”.
In the case of “258 (SLMGPVVHEV; listed as Homo sapiens) [compound 258]”, the “Peptide exchange” value is reported as ““+++” (≥50 = +++)”.
With “259 (TLITDGMRSV; listed as Homo sapiens) [compound 259]” the “Peptide exchange” value was ““++” (≥20% = ++)”.
With “260 (TLMDMRLSQV; listed as Homo sapiens) [compound 260]” the “Peptide exchange” value was ““+++” (≥50 = +++)”.
With “261 (VLFQEALWHV; listed as Homo sapiens) [compound 261]” the “Peptide exchange” value was ““+++” (≥50 = +++)”.
With “262 (VLPNFLPYNV; listed as Homo sapiens) [compound 262]” the “Peptide exchange” value was ““+++” (≥50 = +++)”.
With “263 (VLYPSLKEI; listed as Homo sapiens) [compound 263]” the “Peptide exchange” value was ““+++” (≥50 = +++)”.
“264 (VMQDPEFLQSV; listed as Homo sapiens) [compound 264]” was tested, and the “Peptide exchange” value was ““++++” (≥75% = ++++)”.
“265 (WLIEDGKVVTV; listed as Homo sapiens) [compound 265]” was tested, and the “Peptide exchange” value was ““++++” (≥75% = ++++)”.
With “266 (SLLESNKDLLL; listed as Homo sapiens) [compound 266]” the “Peptide exchange” value was ““+++” (≥50 = +++)”.
With “267 (ALNENINQV; listed as Homo sapiens) [compound 267]” the “Peptide exchange” value was ““+++” (≥50 = +++)”.
In the case of “268 (KLYQEVEIASV; listed as Homo sapiens) [compound 268]”, the “Peptide exchange” value is reported as ““++++” (≥75% = ++++)”.
In the case of “269 (YLMEGSYNKV; listed as Homo sapiens) [compound 269]”, the “Peptide exchange” value is reported as ““+++” (≥50 = +++)”.
“270 (SVLDQKILL; listed as Homo sapiens) [compound 270]” was tested, and the “Peptide exchange” value was ““+++” (≥50 = +++)”.
“271 (LLLDKLILL; listed as Homo sapiens) [compound 271]” was tested, and the “Peptide exchange” value was ““++++” (≥75% = ++++)”.
With “272 (QQLDSKFLEQV; listed as Homo sapiens) [compound 272]” the “Peptide exchange” value was ““+++” (≥50 = +++)”.
For “273 (AILETAPKEV; listed as Homo sapiens) [compound 273]”, the “Peptide exchange” value was ““+++” (≥50 = +++)”.
In the case of “274 (ALAEALKEV; listed as Homo sapiens) [compound 274]”, the “Peptide exchange” value is reported as ““++++” (≥75% = ++++)”.
“275 (ALIEGAGILL; listed as Homo sapiens) [compound 275]” was tested, and the “Peptide exchange” value was ““+++” (≥50 = +++)”.
With “276 (ALLEADVNIKL; listed as Homo sapiens) [compound 276]” the “Peptide exchange” value was ““++++” (≥75% = ++++)”.
For “277 (ALLEENSTPQL; listed as Homo sapiens) [compound 277]”, the “Peptide exchange” value was ““+++” (≥50 = +++)”.
“278 (ALTSVVVTL; listed as Homo sapiens) [compound 278]” was tested, and the “Peptide exchange” value was ““++++” (≥75% = ++++)”.
In the case of “280 (ATLNIIHSV; listed as Homo sapiens) [compound 280]”, the “Peptide exchange” value is reported as ““+++” (≥50 = +++)”.
With “281 (GLLAGDRLVEV; listed as Homo sapiens) [compound 281]” the “Peptide exchange” value was ““+++” (≥50 = +++)”.
In the case of “282 (GQFPSYLETV; listed as Homo sapiens) [compound 282]”, the “Peptide exchange” value is reported as ““+++” (≥50 = +++)”.
In the case of “283 (ILSGIGVSQV; listed as Homo sapiens) [compound 283]”, the “Peptide exchange” value is reported as ““+++” (≥50 = +++)”.
“284 (KLDAFVEGV; listed as Homo sapiens) [compound 284]” was tested, and the “Peptide exchange” value was ““+++” (≥50 = +++)”.
In the case of “285 (KLLDLSDSTSV; listed as Homo sapiens) [compound 285]”, the “Peptide exchange” value is reported as ““+++” (≥50 = +++)”.
With “286 (KVLDKVFRA; listed as Homo sapiens) [compound 286]” the “Peptide exchange” value was ““++++” (≥75% = ++++)”.
“287 (LIGEFLEKV; listed as Homo sapiens) [compound 287]” was tested, and the “Peptide exchange” value was ““++++” (≥75% = ++++)”.
For “288 (LLDDSLVSI; listed as Homo sapiens) [compound 288]”, the “Peptide exchange” value was ““+++” (≥50 = +++)”.
For “290 (NLIDLDDLYV; listed as Homo sapiens) [compound 290]”, the “Peptide exchange” value was ““++++” (≥75% = ++++)”.
In the case of “291 (QLIDYERQL; listed as Homo sapiens) [compound 291]”, the “Peptide exchange” value is reported as ““+++” (≥50 = +++)”.
With “292 (RIPAYFVTV; listed as Homo sapiens) [compound 292]” the “Peptide exchange” value was ““++” (≥20% = ++)”.
With “293 (FLASESLIKQI; listed as Homo sapiens) [compound 293]” the “Peptide exchange” value was ““++” (≥20% = ++)”.
“294 (RLIDLHTNV; listed as Homo sapiens) [compound 294]” was tested, and the “Peptide exchange” value was ““++++” (≥75% = ++++)”.
“295 (SLFSSPPEI; listed as Homo sapiens) [compound 295]” was tested, and the “Peptide exchange” value was ““+++” (≥50 = +++)”.
“296 (SLLSGRISTL; listed as Homo sapiens) [compound 296]” was tested, and the “Peptide exchange” value was ““+++” (≥50 = +++)”.
For “297 (TLFYSLREV; listed as Homo sapiens) [compound 297]”, the “Peptide exchange” value was ““+++” (≥50 = +++)”.
In the case of “298 (TMAKESSIIGV; listed as Homo sapiens) [compound 298]”, the “Peptide exchange” value is reported as ““++” (≥20% = ++)”.
With “299 (ALLRVTPFI; listed as Homo sapiens) [compound 299]” the “Peptide exchange” value was ““+++” (≥50 = +++)”.
With “300 (TLAQQPTAV; listed as Homo sapiens) [compound 300]” the “Peptide exchange” value was ““++” (≥20% = ++)”.
“302 (KIQEILTQV; listed as Homo sapiens) [compound 302]” was tested, and the “Peptide exchange” value was ““++++” (≥75% = ++++)”.
